Reference: the supplement of paper PMC7125110
± gives the standard error. Fewer inactive variants are shown than the library holds.

B1: glmS ribozyme (parent)
chain: AUAAAAGCGCCAGAACUACAGAAAUGUAGUUGACGAGGAGGAGGUUUAUCGAAUUUUCGGCGGAUGCCUCCAAA

Experiments:
Details in all cases: with glucosamine-6-phosphate
glucosamine-6-phosphate [1] = variants of: B1; assay: self-cleavage kobs at 160 uM GlcN6P; higher = faster cleavage; RNA array
Outline: (§1)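 Using a hybridised Cy3 probe at 37 °C, barcoded ribozyme variants transcribed in situ by E. coli RNA polymerase on sequenced MiSeq chips were monitored across tiles imaged over ~14 h. The flow contained glucosamine-6-phosphate from 40 μM to 10 mM in HEPES/KCl/Mg(OAc)2 buffer. Signals were normalised to baseline and to non-cleaving reference variants before per-tile medians were fit to one- or two-exponential decays to yield kobs. Weighted Michaelis–Menten fits across concentrations gave kcat and KM.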

glucosamine-6-phosphate [2] = variants of: B1; assay: self-cleavage kobs at 640 uM GlcN6P; higher = faster cleavage; RNA array
Outline: as §1

glucosamine-6-phosphate [3] = variants of: B1; assay: self-cleavage kobs at 10000 uM GlcN6P; higher = faster cleavage; RNA array
Outline: as §1

glucosamine-6-phosphate [4] = variants of: B1; assay: self-cleavage kobs at 2500 uM GlcN6P; higher = faster cleavage; RNA array
Outline: as §1

glucosamine-6-phosphate [5] = variants of: B1; assay: self-cleavage kobs at 40 uM GlcN6P; higher = faster cleavage; RNA array
Outline: as §1

Row | Variant | self-cleavage kobs at 160 uM GlcN6P (glucosamine-6-phosphate [1]) [s⁻¹] | self-cleavage kobs at 640 uM GlcN6P (glucosamine-6-phosphate [2]) [s⁻¹] | self-cleavage kobs at 10000 uM GlcN6P (glucosamine-6-phosphate [3]) [s⁻¹] | self-cleavage kobs at 2500 uM GlcN6P (glucosamine-6-phosphate [4]) [s⁻¹] | self-cleavage kobs at 40 uM GlcN6P (glucosamine-6-phosphate [5]) [s⁻¹]
1 | G9C G51U | < 1e-05 | < 1e-05 | < 1e-05 | – | –
2 | C8U G32C U47A | < 1e-05 | < 1e-05 | – | < 1e-05 | –
3 | G7A G43C | < 1e-05 | < 1e-05 | < 1e-05 | < 1e-05 | –
4 | G7C C8U A15G G35A | < 1e-05 | – | – | < 1e-05 | –
5 | U65A C70U | 0.00024 ± 4.6e-05 | 0.000871 ± 0.00012 | 0.00403 ± 0.0008 | 0.00273 ± 0.0009 | 0.000142 ± 1.8e-05
6 | A6U G41U C68A | < 1e-05 | – | – | < 1e-05 | –
7 | C8U A14U G37U G41U | < 1e-05 | < 1e-05 | – | < 1e-05 | –
8 | C8U A15U | < 1e-05 | < 1e-05 | – | < 1e-05 | –
9 | G9A C10U G13A A52C | < 1e-05 | < 1e-05 | – | < 1e-05 | –
10 | G7U G9C G59C U69G | < 1e-05 | < 1e-05 | – | – | –
11 | G7U G9A | < 1e-05 | < 1e-05 | – | < 1e-05 | –
12 | G9C A12C U31C | < 1e-05 | < 1e-05 | – | < 1e-05 | –
13 | G7A A15U | < 1e-05 | – | – | – | –
14 | C8A G38U | < 1e-05 | – | – | < 1e-05 | –
15 | G7U C34G | < 1e-05 | < 1e-05 | – | – | –
16 | C8U A12C G43C U49C | < 1e-05 | < 1e-05 | < 1e-05 | < 1e-05 | –
17 | C8U G9C G62A U65G | < 1e-05 | – | – | < 1e-05 | –
18 | C8A A48C C68G | < 1e-05 | < 1e-05 | – | – | –
19 | G7U C16G G43U C67G | < 1e-05 | < 1e-05 | – | – | –
20 | C8U A15G G29A | < 1e-05 | < 1e-05 | – | < 1e-05 | –
21 | G7A A48G | < 1e-05 | – | < 1e-05 | < 1e-05 | –
22 | G7A U30C G60U A64C | < 1e-05 | – | – | < 1e-05 | –
23 | C8G C10U G51U A53U | < 1e-05 | < 1e-05 | – | – | –
24 | C8A G13U G35U C68G | 0.000168 ± 3.8e-05 | – | – | – | –
25 | A6U C11U | < 1e-05 | – | – | – | –
